# Data as given in article PMC2848857, “The Crystal Structure of PPIL1 Bound to Cyclosporine A Suggests a Binding Mode for a Linear Epitope of the SKIP Protein” (PLoS ONE, 2010).
# T1: GST-PPIL1 fusion protein (human, UniProt Q9Y3C6 1-166)
# T1 construct: Peptidyl-prolyl isomerase like 1 (PPIL1), human, full length, cloned from a human cDNA library into pGEX-6P1; also called Recombinant GST-PPIL1; Peptidyl-prolyl isomerase like 1; source: E. coli Rosetta 2, glutathione-sepharose
# T1 sequence (looked up): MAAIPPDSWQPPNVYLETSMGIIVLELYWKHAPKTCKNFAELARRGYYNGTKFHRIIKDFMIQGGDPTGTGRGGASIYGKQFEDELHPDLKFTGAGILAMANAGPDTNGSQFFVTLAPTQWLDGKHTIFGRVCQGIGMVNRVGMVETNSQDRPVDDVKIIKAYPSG
# Target: T1, GST-PPIL1 fusion protein
# Assay: peptide or protein array; SKIP 20-mer peptides on cellulose membrane; GST-PPIL1 or GST alone at 40 µg/ml in blocking buffer (5% milk powder, 5% saccharose in TBS, pH 8.0), overnight at 4°C; detected with anti-GST antibody and chemiluminescence
# Conditions: both partners purified
binder,measurement,value
"DGGAFPEIHVAQYPLDMGRK (peptide, UniProt Q13573 60-79, looked up, The limits fit the twelfth peptide of a scan that starts at residue 49 with a one amino acid offset; source: synthetic peptide, spotted on cellulose membrane) [peptide A12 of the SKIP peptide array]",binding result,binds
